Target: recombinant human collagen XVIII fragment endostatin (Entremed, Inc) (human) (UniProt P39060)
Assay: ELISA; protein incubated with DXS500k or buffer immobilized, overlaid with tPA in 10 mM εACA

Chain of Tissue-type plasminogen activator (tPA, Actilyse, Boehringer-Ingelheim) (P00750 36-562 limits assumed): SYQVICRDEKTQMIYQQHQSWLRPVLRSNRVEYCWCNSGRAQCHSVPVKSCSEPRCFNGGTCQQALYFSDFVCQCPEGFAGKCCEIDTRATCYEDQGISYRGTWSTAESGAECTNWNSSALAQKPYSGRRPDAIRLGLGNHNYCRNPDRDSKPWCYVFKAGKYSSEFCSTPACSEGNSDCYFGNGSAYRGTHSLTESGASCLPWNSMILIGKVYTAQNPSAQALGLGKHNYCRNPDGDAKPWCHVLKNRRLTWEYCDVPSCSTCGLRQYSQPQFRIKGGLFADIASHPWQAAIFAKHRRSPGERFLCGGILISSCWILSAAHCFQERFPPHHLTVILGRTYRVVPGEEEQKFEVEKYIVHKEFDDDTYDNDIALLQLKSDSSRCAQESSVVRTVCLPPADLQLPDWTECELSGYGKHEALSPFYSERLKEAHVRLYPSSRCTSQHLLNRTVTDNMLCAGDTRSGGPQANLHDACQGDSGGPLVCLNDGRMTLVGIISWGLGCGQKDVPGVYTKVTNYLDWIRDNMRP

**Q.** How did the factor of increase in tPA binding (protein exposed to DXS500k against protein in buffer only) turn out when “Tissue-type plasminogen activator (tPA, Actilyse, Boehringer-Ingelheim) (from UniProt P00750 36-562) (enzyme)” was run?
**A.** Its factor of increase in tPA binding (protein exposed to DXS500k against protein in buffer only) is 10.5 fold.

Source: US20080118529A1
